B1: putA promoter F6 (dsDNA)
DNA 1: TTCCGCAGCCAGGAGTTTTCCGCAAAAACTCCAGAGTCTTTCGCAAGAATCGC
DNA 2: GCGATTCTTGCGAAAGACTCTGGAGTTTTTGCGGAAAACTCCTGGCTGCGGAA

Columns and labels:
[1] = biological target: T1, rPruR (AraC/XylS family regulator) (Pseudomonas aeruginosa PAK) (UniProt Q9I5F8); experiment: EMSA; conditions: 50 mM Tris pH 7.9, 50 mM NaCl, 0.5 mM EDTA, 10% glycerol, 1% NP-40, 25 C, 10 min; 50 ng DNA, 2 ug rPruR in 20 ul; 8% native PAGE in TBE on ice (EMSA) …
T1 sequence: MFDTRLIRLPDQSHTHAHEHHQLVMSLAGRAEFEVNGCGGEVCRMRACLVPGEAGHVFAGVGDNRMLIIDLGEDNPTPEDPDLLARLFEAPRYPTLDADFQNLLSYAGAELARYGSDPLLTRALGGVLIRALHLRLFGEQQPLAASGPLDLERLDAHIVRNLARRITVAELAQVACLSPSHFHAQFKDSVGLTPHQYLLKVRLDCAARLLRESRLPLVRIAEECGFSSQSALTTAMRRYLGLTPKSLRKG

[2] = biological target: T2, rPruR (AraC/XylS family regulator) (Pseudomonas aeruginosa PAK, UniProt Q9I5F8 1-250); experiment: EMSA; 50 mM Tris pH 7.9, 50 mM NaCl, 0.5 mM EDTA, 10% glycerol, 1% NP-40, 25 C, 10 min; 50 ng DNA, 2 ug rPruR in 20 ul; 8% native PAGE in TBE on ice (EMSA); footprint 300 ng probe, 0.09 U DNase I, 25 C 5 min; conditions: protein: recombinant; tags: His tag (pET-28a(+)); blunt
T2 sequence: T1 sequence

Molecule | binding [1] | binding result [2]
CCCTCTCGCAGCCACTACATTCCGCTATCCGCTGGTGCCTCGCGCCGGCGGAATGGGCCTGACCCATACTGATCCGTATTCCCGCGCCACAGGACGTGCCGCGCCGCCGGCACAACCCGCCGGCGGCGGTGCCCCGGGCAATGGACGCCTGGCCGGACTTCTTTCAATAACAATGGCTCCACAAGAGGAGGGCGTG (double strand) [putA promoter F3] | no binding | –
CTTTCCCGTTCCTCTTCGCCGGCAGGCATGCGGACATTGCCGCTGCACGTCGGCACGACGCCATGCAGAGTGGCTACGCGGGTCTACCGACACAAAAAGAAATAATATAACATCCCAATAAATACGCCGAT (double strand) [putA promoter F5] | no binding | –
B1 | – | binds
